{
  "source": "paper PMC9406194",
  "key": {"[1]": {"system": "trypsin", "test": "2DPC hydrogel aptasensor (Debye ring)", "settings": "DNA-H1-960, 500 uM protein; same limit as blank; 5'-NH2-(CH2)6 and 3'-(CH2)6-NH2; amide-linked to hydrogel carboxyl groups; 10 mM phosphate-buffered saline, pH 7.40 (one test at pH 5.00), 1 h immersion; temperature of the binding assay not stated"}, "[2]": {"system": "hemoglobin", "test": "2DPC hydrogel aptasensor (Debye ring)", "settings": "DNA-H1-960, 500 uM protein; same limit as blank; 5'-NH2-(CH2)6 and 3'-(CH2)6-NH2; amide-linked to hydrogel carboxyl groups; 10 mM phosphate-buffered saline, pH 7.40 (one test at pH 5.00), 1 h immersion; temperature of the binding assay not stated"}},
  "data": [
    {"sequence": "ATCTACGAATTCATCAGGGCTAAAGAGTGCAGAGTTACTTAG [lysozyme-binding aptamer]", "values": [
      {"measurement": "binding signal (nm particle spacing decrease)", "setting": "[1]", "value": "< 12.7"},
      {"measurement": "binding signal (nm particle spacing decrease)", "setting": "[2]", "value": "< 12.7"}
    ]}
  ]
}
